In article PMC8548206, “Single-domain antibody screening by isPLA-seq” (Life Science Alliance, 2021):

B1: anti-SQSTM1 sdAb #10 (Flag-tagged, sdAb library) (VHH)
VHH: QVQLVESGGGSVQAGGSLRLSCTASGGSEYSYSTFSLGWFRQAPGQEREAVAAIASMGGLTYYADSVKGRFTISRDNAKNTVTLQMNNLKPEDTAIYYCAAVLHVLSWDRCEYDPAHDLRTAWGQGTQVTVSS
notes: 21-aa CDR3 in place of the CDR3 of cAbBCII10; source: HEK293T, transfected (sdAb library in pcDNA3.1), in fixed cells; not shown: 3x Flag, C-terminal, kept
B2: anti-SQSTM1 sdAb #11 (Flag-tagged, sdAb library) (VHH)
VHH: QVQLVESGGGSVQAGGSLRLSCTASGGSEYSYSTFSLGWFRQAPGQEREAVAAIASMGGLTYYADSVKGRFTISRDNAKNTVTLQMNNLKPEDTAIYYCAAARAHFASLCDCQGNRITLLCDWGQGTQVTVSS
notes: as for B1
B3: anti-SQSTM1 sdAb #12 (Flag-tagged, sdAb library) (VHH)
VHH: QVQLVESGGGSVQAGGSLRLSCTASGGSEYSYSTFSLGWFRQAPGQEREAVAAIASMGGLTYYADSVKGRFTISRDNAKNTVTLQMNNLKPEDTAIYYCAADQVRDHSWCNLFRTLRVCVLIWGQGTQVTVSS
notes: as for B1
B4: anti-SQSTM1 sdAb #13 (Flag-tagged, sdAb library) (VHH)
VHH: QVQLVESGGGSVQAGGSLRLSCTASGGSEYSYSTFSLGWFRQAPGQEREAVAAIASMGGLTYYADSVKGRFTISRDNAKNTVTLQMNNLKPEDTAIYYCAAREPFARYLRKESYPLFRMYSFWGQGTQVTVSS
notes: as for B1
B5: anti-SQSTM1 sdAb #14 (Flag-tagged, sdAb library) (VHH)
VHH: QVQLVESGGGSVQAGGSLRLSCTASGGSEYSYSTFSLGWFRQAPGQEREAVAAIASMGGLTYYADSVKGRFTISRDNAKNTVTLQMNNLKPEDTAIYYCAAGGNTVKVSNIFEVSSSVRVRLWGQGTQVTVSS
notes: as for B1
B6: anti-SQSTM1 sdAb #15 (Flag-tagged, sdAb library) (VHH)
VHH: QVQLVESGGGSVQAGGSLRLSCTASGGSEYSYSTFSLGWFRQAPGQEREAVAAIASMGGLTYYADSVKGRFTISRDNAKNTVTLQMNNLKPEDTAIYYCAALRWSWFPSGSTANLSLGIGCTWGQGTQVTVSS
notes: as for B1
B7: anti-SQSTM1 sdAb #16 (Flag-tagged, sdAb library) (VHH)
VHH: QVQLVESGGGSVQAGGSLRLSCTASGGSEYSYSTFSLGWFRQAPGQEREAVAAIASMGGLTYYADSVKGRFTISRDNAKNTVTLQMNNLKPEDTAIYYCAANMAIRVRWVAMFTCGPIGGVGWGQGTQVTVSS
notes: as for B1
B8: anti-SQSTM1 sdAb #17 (Flag-tagged, sdAb library) (VHH)
VHH: QVQLVESGGGSVQAGGSLRLSCTASGGSEYSYSTFSLGWFRQAPGQEREAVAAIASMGGLTYYADSVKGRFTISRDNAKNTVTLQMNNLKPEDTAIYYCAAAVESCDGFRTGRTVPYREVTYWGQGTQVTVSS
notes: as for B1
B9: anti-SQSTM1 sdAb #18 (Flag-tagged, sdAb library) (VHH)
VHH: QVQLVESGGGSVQAGGSLRLSCTASGGSEYSYSTFSLGWFRQAPGQEREAVAAIASMGGLTYYADSVKGRFTISRDNAKNTVTLQMNNLKPEDTAIYYCAAGIGYAGDCRAHTIATRRFSVGWGQGTQVTVSS
notes: as for B1
B10: anti-SQSTM1 sdAb #19 (Flag-tagged, sdAb library) (VHH)
VHH: QVQLVESGGGSVQAGGSLRLSCTASGGSEYSYSTFSLGWFRQAPGQEREAVAAIASMGGLTYYADSVKGRFTISRDNAKNTVTLQMNNLKPEDTAIYYCAARQAPFGSRCSISSSPKGRYPSWGQGTQVTVSS
notes: as for B1
B11: anti-SQSTM1 sdAb #2 (Flag-tagged, sdAb library) (VHH)
VHH: QVQLVESGGGSVQAGGSLRLSCTASGGSEYSYSTFSLGWFRQAPGQEREAVAAIASMGGLTYYADSVKGRFTISRDNAKNTVTLQMNNLKPEDTAIYYCAARAGVCGVVGSFSMYTIGNWVYWGQGTQVTVSS
notes: 21-aa CDR3 in place of the CDR3 of cAbBCII10; also called clone #2; source: HEK293T, transfected (sdAb library in pcDNA3.1), in fixed cells; not shown: 3x Flag, C-terminal, kept
B12: anti-SQSTM1 sdAb #20 (Flag-tagged, sdAb library) (VHH)
VHH: QVQLVESGGGSVQAGGSLRLSCTASGGSEYSYSTFSLGWFRQAPGQEREAVAAIASMGGLTYYADSVKGRFTISRDNAKNTVTLQMNNLKPEDTAIYYCAAPGHGRPWRAATFPVDEGGGSAWGQGTQVTVSS
notes: as for B1
B13: anti-SQSTM1 sdAb #21 (Flag-tagged, sdAb library) (VHH)
VHH: QVQLVESGGGSVQAGGSLRLSCTASGGSEYSYSTFSLGWFRQAPGQEREAVAAIASMGGLTYYADSVKGRFTISRDNAKNTVTLQMNNLKPEDTAIYYCAADLWAPLMVCSGGLTQMLSNSDWGQGTQVTVSS
notes: as for B1
B14: anti-SQSTM1 sdAb #22 (Flag-tagged, sdAb library) (VHH)
VHH: QVQLVESGGGSVQAGGSLRLSCTASGGSEYSYSTFSLGWFRQAPGQEREAVAAIASMGGLTYYADSVKGRFTISRDNAKNTVTLQMNNLKPEDTAIYYCAAACELDAVRLWPDFVRPAVFSIWGQGTQVTVSS
notes: as for B1
B15: anti-SQSTM1 sdAb #23 (Flag-tagged, sdAb library) (VHH)
VHH: QVQLVESGGGSVQAGGSLRLSCTASGGSEYSYSTFSLGWFRQAPGQEREAVAAIASMGGLTYYADSVKGRFTISRDNAKNTVTLQMNNLKPEDTAIYYCAARRGFVRHTKIKLLDYALTEVRWGQGTQVTVSS
notes: as for B1
B16: anti-SQSTM1 sdAb #24 (Flag-tagged, sdAb library) (VHH)
VHH: QVQLVESGGGSVQAGGSLRLSCTASGGSEYSYSTFSLGWFRQAPGQEREAVAAIASMGGLTYYADSVKGRFTISRDNAKNTVTLQMNNLKPEDTAIYYCAAVRTPVILRCFQSGIFYLVGEVWGQGTQVTVSS
notes: as for B1
B17: anti-SQSTM1 sdAb #25 (Flag-tagged, sdAb library) (VHH)
VHH: QVQLVESGGGSVQAGGSLRLSCTASGGSEYSYSTFSLGWFRQAPGQEREAVAAIASMGGLTYYADSVKGRFTISRDNAKNTVTLQMNNLKPEDTAIYYCAAPGDGQEVIFAFVQRSTRAWPVWGQGTQVTVSS
notes: as for B1
B18: anti-SQSTM1 sdAb #26 (Flag-tagged, sdAb library) (VHH)
VHH: QVQLVESGGGSVQAGGSLRLSCTASGGSEYSYSTFSLGWFRQAPGQEREAVAAIASMGGLTYYADSVKGRFTISRDNAKNTVTLQMNNLKPEDTAIYYCAAFPSRLKCTRGCGCRTFNFPALWGQGTQVTVSS
notes: as for B1
B19: anti-SQSTM1 sdAb #27 (Flag-tagged, sdAb library) (VHH)
VHH: QVQLVESGGGSVQAGGSLRLSCTASGGSEYSYSTFSLGWFRQAPGQEREAVAAIASMGGLTYYADSVKGRFTISRDNAKNTVTLQMNNLKPEDTAIYYCAAIIAELCSGLPCTSFLRTPCPVWGQGTQVTVSS
notes: as for B1
B20: anti-SQSTM1 sdAb #3 (Flag-tagged, sdAb library) (VHH)
VHH: QVQLVESGGGSVQAGGSLRLSCTASGGSEYSYSTFSLGWFRQAPGQEREAVAAIASMGGLTYYADSVKGRFTISRDNAKNTVTLQMNNLKPEDTAIYYCAARVRTSPRSAVADGSAYRSESAWGQGTQVTVSS
notes: as for B1
B21: anti-SQSTM1 sdAb #4 (Flag-tagged, sdAb library) (VHH)
VHH: QVQLVESGGGSVQAGGSLRLSCTASGGSEYSYSTFSLGWFRQAPGQEREAVAAIASMGGLTYYADSVKGRFTISRDNAKNTVTLQMNNLKPEDTAIYYCAAAYGNDVQSVAFKYVVGRGYQLWGQGTQVTVSS
notes: as for B1
B22: anti-SQSTM1 sdAb #5 (Flag-tagged, sdAb library) (VHH)
VHH: QVQLVESGGGSVQAGGSLRLSCTASGGSEYSYSTFSLGWFRQAPGQEREAVAAIASMGGLTYYADSVKGRFTISRDNAKNTVTLQMNNLKPEDTAIYYCAAYDRVGGGHVLIACYSDDLCMGWGQGTQVTVSS
notes: as for B1
B23: anti-SQSTM1 sdAb #6 (Flag-tagged, sdAb library) (VHH)
VHH: QVQLVESGGGSVQAGGSLRLSCTASGGSEYSYSTFSLGWFRQAPGQEREAVAAIASMGGLTYYADSVKGRFTISRDNAKNTVTLQMNNLKPEDTAIYYCAALLVIDSSVIARLDGRGRSDRLWGQGTQVTVSS
notes: as for B1

molecular target: T1, HA-tagged SQSTM1 (Homo sapiens (Human)., UniProt Q13501); experiment: proximity ligation; pooled screen (isPLA-seq): Flag-tagged sdAb library co-transfected with HA-tagged SQSTM1 into HEK293T cells, fixed after 48 h, isPLA with anti-HA and anti-Flag antibodies, positive cells sorted by FACS, three rounds, CDR3 sequenced; conditions: partners not purified
T1 construct: autophagy receptor SQSTM1, full length; the printed limits 1-440 fit the human protein; also called HA-tagged bait; full length; source: HEK293T, transfected, in fixed cells (screen)

| Binder | binding result |
| --- | --- |
| B1 | binds |
| B2 | binds |
| B3 | binds |
| B4 | binds |
| B5 | binds |
| B6 | binds |
| B7 | binds |
| B8 | binds |
| B9 | binds |
| B10 | binds |
| B11 | binds |
| B12 | binds |
| B13 | binds |
| B14 | binds |
| B15 | binds |
| B16 | binds |
| B17 | binds |
| B18 | binds |
| B19 | binds |
| B20 | binds |
| B21 | binds |
| B22 | binds |
| B23 | binds |
